Values quoted from earlier work as cited in PMC2854688.
“And” between values parts separate entries of the source, which are not always exact repeats. Equal entries are not always repeated.

What was measured:
[1] = molecular target: eRF3 PAM2 peptide PAM2 (Homo sapiens) (UniProt P15170)
[2] = molecular target: eRF3 overlapping PAM2 peptide PAM2 (Homo sapiens) (UniProt P15170)

In the case of “PABPC1 MLLE domain MLLE (from UniProt P11940)”, the Kd [1] is given as 3.9 µM and 3.1 µM and the Kd [2] is given as 1.3 µM.
